Legend:
[1] = target: T1, NRF2;MAFG (human?;human?, UniProt Q16236;O15525 1-605;1-162, |); assay: protein binding microarray, anti-NRF2 detection
[2] = target: T1, NRF2;MAFG; assay: protein binding microarray, anti-NRF2 detection; remark: listed apart in the source

Binder | binding signal [1] | binding result [2]
NQO1.ARE (dsDNA, 3' biotin on top strand; nick in top strand between nt 33 and 34) DNA 1: CCGCAGTCACAGTGACTCAGCAGAATCTGAGCCACCCAACCGCCCAACTT DNA 2: AAGTTGGGCGGTTGGGTGGCTCAGATTCTGCTGAGTCACTGTGACTGCGG | 1 relative to NQO1.ARE | –
7A (dsDNA, 3' biotin on top strand; nick in top strand between nt 33 and 34) DNA 1: CCGCAGTCACAGTGACTAAGCAGAATCTGAGCCACCCAACCGCCCAACTT DNA 2: AAGTTGGGCGGTTGGGTGGCTCAGATTCTGCTTAGTCACTGTGACTGCGG | – | binds
